Data from patent US20200087364A1 (IMMATICS BIOTECHNOLOGIES, published 2020).

Molecular target: T1, HLA-A*01:01 (human)
T1 construct: MHC class I monomer first loaded with a UV-sensitive peptide (not identified) that is cleaved by UV irradiation and exchanged for the tested peptide; captured on streptavidin plates, detected with anti-β2m; also called peptide-receptive MHC molecules
Assay: UV-ligand exchange, anti-b2m ELISA
How it was run: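 Peptide–MHC complexes made by UV-ligand exchange of a UV-cleavable peptide; exchange yield measured by ELISA on streptavidin-coated plates, samples diluted 100-fold, 1 h 37 °C. Detection with 2 ug/ml HRP anti-β2m, TMB, A450; refolded HLA-A*02:01/MLA-001 monomer standards 15-500 ng/ml.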

## TEEKFVSY
  peptide exchange yield: 10 to 20%

## YTSHEDIGY
  peptide exchange yield: > 75%

## GQFTGTAGACRY
  peptide exchange yield: 20 to 50%

## TSDVTGSLTY
  peptide exchange yield: > 75%

## VLDFAPPGASAY
  peptide exchange yield: > 75%

## MMEMEGMY
  peptide exchange yield: 50 to 75%

## TLEDLDNLYNY
  peptide exchange yield: 50 to 75%

## GQRLDEAMISY
  peptide exchange yield: 50 to 75%

## HMLAAMAY
  peptide exchange yield: 20 to 50%

## RLDEAMISY
  peptide exchange yield: 50 to 75%

## KFDVINHYF
  peptide exchange yield: 20 to 50%

## EVDSVALSL
  peptide exchange yield: 20 to 50%

## VSINPNSGDIY
  peptide exchange yield: 50 to 75%

## ESQTCASDY
  peptide exchange yield: 50 to 75%

## FYLSTPENYHY
  peptide exchange yield: 50 to 75%

## GFGGLSSQGVYY
  peptide exchange yield: 50 to 75%

## FSENLIYTYI
  peptide exchange yield: 20 to 50%

## FGTTPAAEYF
  peptide exchange yield: 20 to 50%

## VTTDKPRAY
  peptide exchange yield: 20 to 50%

## YADLLIYTY
  peptide exchange yield: > 75%

## KSFETTVRY
  peptide exchange yield: 20 to 50%

## DTDDRELRY
  peptide exchange yield: 50 to 75%

## ELAAGQVVY
  peptide exchange yield: 10 to 20%

## EVDRNLIQY
  peptide exchange yield: 50 to 75%

## KAFQELGVRY
  peptide exchange yield: 20 to 50%

## TVTDGTHTDFY
  peptide exchange yield: 20 to 50%

## VTDGINPLI
  peptide exchange yield: 20 to 50%

## VTDGTHTDFY
  peptide exchange yield: 50 to 75%

## PPEANSLQGALY
  peptide exchange yield: 20 to 50%

## VSDHLQAGMLGQY
  peptide exchange yield: 50 to 75%

## VLKIELETY
  peptide exchange yield: 50 to 75%

## YTCEECGQAF
  peptide exchange yield: 20 to 50%

## EDLLEVLDMY
  peptide exchange yield: 20 to 50%

## YMTSMALNY
  peptide exchange yield: 50 to 75%

## FTDPHIITF
  peptide exchange yield: > 75%

## QALQDKLQTFY
  peptide exchange yield: 20 to 50%

## DGIADASNLSYY
  peptide exchange yield: 20 to 50%

## FSELNPLALY
  peptide exchange yield: > 75%

## KTLQKPVLPLY
  peptide exchange yield: 20 to 50%

## RTGIFPYRF
  peptide exchange yield: 20 to 50%

## GTDKQNSTLRY
  peptide exchange yield: 50 to 75%

## LQKPVLPLY
  peptide exchange yield: 20 to 50%

## STSRLTLFS
  peptide exchange yield: 20 to 50%

## IMLSVDQHLY
  peptide exchange yield: 50 to 75%

## LLDEDNNIKL
  peptide exchange yield: 20 to 50%

## NTDSMTLNNTAY
  peptide exchange yield: > 75%

## EGELSEGEHWY
  peptide exchange yield: 50 to 75%

## YLYQAPGSLALY
  peptide exchange yield: > 75%

## LSDPQAELQFY
  peptide exchange yield: > 75%

## PSSMPECLSY
  peptide exchange yield: > 75%

## PSSMPECLSYY
  peptide exchange yield: 50 to 75%

## SMDPVTGYQY
  peptide exchange yield: 50 to 75%

## ATNIQLNIDTY
  peptide exchange yield: 50 to 75%

## FTESNQYNIY
  peptide exchange yield: > 75%
